Experimental data taken from article PMC9352680, “A comprehensive thermodynamic model for RNA binding by the Saccharomyces cerevisiae Pumilio protein PUF4”.

T1: PUF4 RNA-binding domain (Saccharomyces cerevisiae, UniProt P25339 537-888)
T1 sequence: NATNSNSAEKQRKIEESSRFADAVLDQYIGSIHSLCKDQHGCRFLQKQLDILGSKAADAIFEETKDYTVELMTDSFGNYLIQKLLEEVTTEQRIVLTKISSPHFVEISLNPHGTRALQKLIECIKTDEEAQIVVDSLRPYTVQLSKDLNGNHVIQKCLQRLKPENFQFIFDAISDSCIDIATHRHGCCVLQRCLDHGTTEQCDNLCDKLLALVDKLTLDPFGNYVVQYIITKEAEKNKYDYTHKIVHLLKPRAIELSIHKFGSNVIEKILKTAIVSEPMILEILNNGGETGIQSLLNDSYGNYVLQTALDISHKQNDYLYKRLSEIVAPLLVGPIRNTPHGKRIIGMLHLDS


target: T1, PUF4 RNA-binding domain; experiment: Mg; RNA-MaP; 20 mM Na-HEPES pH 7.4, 30 mM KOAc, 0.75 mM MgCl2, 0.1% Tween-20, 5% glycerol, 0.1 mg/mL BSA, 2 mM DTT; 25 C; 0.0125-409.6 nM protein; details: tags: N-His6-TEV cleaved; C-SNAP kept, Cy3B-labelled; label: tethered on chip by stalled RNA polymerase

Binder | Kd [nM]
Ic_S2_P5E.1_K5.1_C5.1_H5.1_A5.1_F5.1_[T8C]_[T9A]_[A10T]_T5.1 (ssRNA) RNA: UUUGAUUAAUAUGAUAUCGUUCUUUCUUGUAUUACAUUUCUUUCUCGAUAUCAUAUUAAUCUUU | 444
Ic_S2_P5E.1_K5.1_C5.1_H5.1_A5.1_[T5C]_[T6C]_[A7G]_F5.1_[T8A]_[T9C]_[A10C]_T5.1 (ssRNA) RNA: UUUGAUUAAUAUGAUAUCGUUCUUUCUUGUACCGACCUUCUUUCUCGAUAUCAUAUUAAUCUUU | 1140
Ic_S2_P5E.1_K5.1_C5.1_H5.1_A5.1_[T5C]_[T6A]_[A7C]_F5.1_[T9G]_[A10G]_T5.1 (ssRNA) RNA: UUUGAUUAAUAUGAUAUCGUUCUUUCUUGUACACUGGUUCUUUCUCGAUAUCAUAUUAAUCUUU | 4.81
Ic_S2_P4E.1_K4.1_C4.1_H4.1_A4.1_[A6T]_[T7C]_F4.1_[T8A]_T4.1 (ssRNA) RNA: UUUGAUUAAUAUGAUAUCGUUCUUUCUUGUAUUCAAUUCUUUCUCGAUAUCAUAUUAAUCUUU | 201
Ic_S2_P4E.1_K4.1_C4.1_H4.1_A4.1_[A6T]_[T7C]_F4.1_[A9C]_T4.1 (ssRNA) RNA: UUUGAUUAAUAUGAUAUCGUUCUUUCUUGUAUUCUCUUCUUUCUCGAUAUCAUAUUAAUCUUU | 12.7
Ic_S2_P4E.1_K4.1_C4.1_H4.1_A4.1_[T7C]_F4.1_[T8A]_[A9T]_T4.1 (ssRNA) RNA: UUUGAUUAAUAUGAUAUCGUUCUUUCUUGUAUACAUUUCUUUCUCGAUAUCAUAUUAAUCUUU | 16.4
Ic_S2_P4E.1_K4.1_C4.1_H4.1_A4.1_[A6T]_F4.1_[T8C]_[A9C]_T4.1 (ssRNA) RNA: UUUGAUUAAUAUGAUAUCGUUCUUUCUUGUAUUUCCUUCUUUCUCGAUAUCAUAUUAAUCUUU | 52.7
Ic_S2_P4E.1_K4.1_C4.1_H4.1_A4.1_[T7C]_F4.1_[T8A]_[A9C]_T4.1 (ssRNA) RNA: UUUGAUUAAUAUGAUAUCGUUCUUUCUUGUAUACACUUCUUUCUCGAUAUCAUAUUAAUCUUU | 60.4
Ic_S2_P4E.1_K4.1_C4.1_H4.1_A4.1_[T7C]_F4.1_[T8C]_[A9T]_T4.1 (ssRNA) RNA: UUUGAUUAAUAUGAUAUCGUUCUUUCUUGUAUACCUUUCUUUCUCGAUAUCAUAUUAAUCUUU | 15.8
Ic_S2_P4E.1_K4.1_C4.1_H4.1_A4.1_[A6T]_[T7A]_F4.1_[T8G]_[A9C]_T4.1 (ssRNA) RNA: UUUGAUUAAUAUGAUAUCGUUCUUUCUUGUAUUAGCUUCUUUCUCGAUAUCAUAUUAAUCUUU | 685
Ic_S2_P4E.1_K4.1_C4.1_H4.1_A4.1_[A6T]_F4.1_[T8A]_[A9T]_T4.1 (ssRNA) RNA: UUUGAUUAAUAUGAUAUCGUUCUUUCUUGUAUUUAUUUCUUUCUCGAUAUCAUAUUAAUCUUU | 9.81
Ic_S2_P4E.1_K4.1_C4.1_H4.1_A4.1_[T7C]_F4.1_[T8C]_[A9C]_T4.1 (ssRNA) RNA: UUUGAUUAAUAUGAUAUCGUUCUUUCUUGUAUACCCUUCUUUCUCGAUAUCAUAUUAAUCUUU | 31.3
Ic_S2_P4E.1_K4.1_C4.1_H4.1_A4.1_[A6T]_[T7A]_F4.1_[T8C]_[A9G]_T4.1 (ssRNA) RNA: UUUGAUUAAUAUGAUAUCGUUCUUUCUUGUAUUACGUUCUUUCUCGAUAUCAUAUUAAUCUUU | 93.7
Ic_S2_P4E.1_K4.1_C4.1_H4.1_A4.1_F4.1_T4.1 (ssRNA) RNA: UUUGAUUAAUAUGAUAUCGUUCUUUCUUGUAUAUUAUUCUUUCUCGAUAUCAUAUUAAUCUUU | 0.224
Ic_S2_P4E.1_K4.1_C4.1_H4.1_A4.1_[A6T]_F4.1_[T8G]_[A9C]_T4.1 (ssRNA) RNA: UUUGAUUAAUAUGAUAUCGUUCUUUCUUGUAUUUGCUUCUUUCUCGAUAUCAUAUUAAUCUUU | 195
Ic_S2_P4E.1_K4.1_C4.1_H4.1_A4.1_[A6T]_F4.1_[T8C]_[A9T]_T4.1 (ssRNA) RNA: UUUGAUUAAUAUGAUAUCGUUCUUUCUUGUAUUUCUUUCUUUCUCGAUAUCAUAUUAAUCUUU | 21.7
Ic_S2_P4E.1_K4.1_C4.1_H4.1_A4.1_[A6T]_[T7A]_F4.1_[A9G]_T4.1 (ssRNA) RNA: UUUGAUUAAUAUGAUAUCGUUCUUUCUUGUAUUAUGUUCUUUCUCGAUAUCAUAUUAAUCUUU | 4.55
Ic_S2_P4E.1_K4.1_C4.1_H4.1_A4.1_[T7C]_F4.1_[T8G]_[A9C]_T4.1 (ssRNA) RNA: UUUGAUUAAUAUGAUAUCGUUCUUUCUUGUAUACGCUUCUUUCUCGAUAUCAUAUUAAUCUUU | 55.7
Ic_S2_P4E.1_K4.1_C4.1_H4.1_A4.1_[T7G]_F4.1_[T8C]_[A9C]_T4.1 (ssRNA) RNA: UUUGAUUAAUAUGAUAUCGUUCUUUCUUGUAUAGCCUUCUUUCUCGAUAUCAUAUUAAUCUUU | 53.8
Ic_S2_P4E.1_K4.1_C4.1_H4.1_A4.1_[A6T]_F4.1_[T8A]_[A9C]_T4.1 (ssRNA) RNA: UUUGAUUAAUAUGAUAUCGUUCUUUCUUGUAUUUACUUCUUUCUCGAUAUCAUAUUAAUCUUU | 106
Ic_S2_P4E.1_K4.1_C4.1_H4.1_A4.1_[A6T]_[T7A]_F4.1_[T8A]_[A9T]_T4.1 (ssRNA) RNA: UUUGAUUAAUAUGAUAUCGUUCUUUCUUGUAUUAAUUUCUUUCUCGAUAUCAUAUUAAUCUUU | 78.2
UCUCUUUGUAUAUAUUCUCUU (ssRNA) [Ic_S1_P4E.1_K4.1_C4.1_H4.1_A4.1_F4.1_[T8A]_[A9T]_T4.1] | 3.56
UCUCUUUAUAUAUCAUCUCUU (ssRNA) [Ib_S1_P4E.1_K4.1_C4.1_H4.1_[G2A]_A4.1_F4.1_[T8C]_T4.1] | 1060
